Test: label from the status in PepcDB records
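Note: failed if final PepcDB status was selected cloned or expressed and not failed if soluble or beyond.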

Sequence | protein production
DLLDPETWQFIRDSARHFPPDSDRLPLAEQRALHAGLCRAFRAPLPPDVTLTDRTFGTRPCRLYEPAAPAGTVLFLHGGGFVLGGLDAFDDLCAEIAAGTGLRTVAVDYRLAPEYPHPEDFHDALRAAQAVAQAFPGPLVLMGEDAGGALSASFAHALRGRRALAGQVLVCPMLGGALDRVSALTHATAPMLSRQDVLRMGALRHGGREPAADPTADALRDTDFRGLPPTLIVTAQCDPLTDDGRAYRDAIRAAAGRARWIEEPGLVHGFLRARHRVPRAAASFARILQAASAMAHDR | failed
DLNLPIYPVKGYSLTLPVTNSDGAPVSTVLDESYKVAITRFDNRIRVGGMAELSGYEIKLPEKRRETLALVVNDLFPEGGDLSQASFWSGLRPMTPDSTPLIGRTRFDN | failed
DNKKIILEFSSPNTNKPLHVGHLRNDVIGESLSRILKAVGAKITKINLINDRGVHICKSMLAYKKFGNGITPEKAFKKGDHLIGDFYVKYNKYSQENENAEKEIQDLLLLWEQKDVSTIELWKKLNKWAIEGIKETYEITNTSFDKIYLESEIFKIGKNVVLEGLEKGFCYKREDGAICIDLPSDSDEKADTKVKQKVLIRSNGTSIYLTQDLGNIAVRTKEFNFEEMIYVVGSEQIQHFKSLFFVAEKLGLSKNKKLIHLSHGMVNLVDGKMKSREGNVIDADNLISNLIELIIPEMTQKIENKESAKKNALNIALGAIHYYLLKSAIHKDIVFNKKESLSFTGNSGPYIQYV | failed
DPKEGVQYEVLSTSLENDGMAPVTEVFALSCGHCRNMENFLPVISQEAGTDIGKMHITFNQSAHIASMFYYAAEMQVDGAPDHAFMEDLFAATQMGEGTTLTEQQEAYSKAFTSRGLVSPYDFNEEQRDTLIKKVDNAKMLSEKSGISSVPTFVVNGKYNVLIGGHDDPKQIADTIRYLLEK | not failed
DQEVRLENRITFQLELVGLERVVRISAKPTKRLQEALQPILAKHGLSLDQVVLHRPGEKQPMDLENPVSSVASQTLVLDTPPDAKMSEARS | not failed
DRSRLQCYSEDVTEYRKMEQGLNDLHHRLQAYREYSATGFLLVDARTKTVVEANSAFCQLLGYEESEVLDFTLYQLIAAERPVIEELLINLETQNYLSVPELEYRNREGQTVQVKGEVYRLPWEDREVYCFVMRT | failed
DSASQAEQFLKLVHADKLTVPVYAQVQQMLAQRFAQAKAPESKKAVLERYQAKANAELDRAIGWDKIKPELIKLYTTNFTESELKDLNAFYQSPLGKKVLEKMPRLTAESAQLTQAKLQGAVEPVNKLMADMDKELGVAAPAQKKK | not failed
DSFKNLENKYDGKIGIYTLNTDDKTNIKYNESYHFPICSVFKFLLVGAILDYDMHNQGFLDKKIPINQDDIGKLGYAPITAKNVGKTLTISQLNYAAILSDSPASNILVRELGGLQNLNKFIKKLGDNDTIITADEPEINYTQPHSNINKTTPKAITKDIYKLAFGNILDKKHKDIFIKYLQDNNTGANRIAFSMPKDWIIGDKTGTCGQYAATNDVAIIWPKNQQPIALGILYTNPNDKNAPSNEEIIQQAAKLIANDLTNTYK | not failed
DSTGKTKTAYDFSAGGISPDAPLVVLFHGLEGSSRSHYAVELMLAVRNRGWHGAVVHFRSCGGVANTAPVFYHLGDTAEIAFALDTLTARYREIYAVGVSLGGNAPAKYLGEQGKKALPHASAAVSAPVDAEAAGSRFDSGITRLLYTRYFLRTLIPKARSLQGFQTAFAAGCKTLGEFDDRFTAPLHGFADRHDYYRQTSCKPLLKHVAKPLLLLNAANDPFLPPEALPRADEASEAVTLFQPAHGGHAGFVSST | failed
DVDIQLVSSNNINDYLHVYDAFARPFGDSYANMVKQHIYSSYNLDDIERLVAYVNHQPVGIVDIIMTDKTIEIDGFGVLEEFQHQGIGSEIQAYVGRMANERPVILVADGKDTAKDMYLRQGYVYQGF | failed
DYQKEYERKLISPEEAANLVKDGMHIEIGGSANTALIIDKYLAKRKDELSHVEVGTFIDIAHYEFLKADPEQEKIKWESCFLYEPVRKCSKELGPCVHRPGVLSDAGYIAKELGGVLKGGKKYTDIAFLVTTPMDRHGFFNFGVTCTFLKSIAEGAEKVVVVVKKDMPWVNGGYDECIHISEVDYIVEDNEFPTPFLPFLPPPSKEDEMIAENIMEAGLIENGSTLQVGIGGLPNTVVRMLKEAGLKDLGIHTEMMGDGLMELMEEGIVTNQNKKLDRGKAVFSFALGTRKLYDFLDRNPEVATYPVEYTNNPFVVAQQPKMFSLNQVAQIDLMGQINSGQIGLTSPSGKIFQISGTGGQLDFVLGCFYSFDRQGKSVLATYSTYNGTSRIIPALPTGAGVTVPRSVVQYVATEWGIAYLRGLPIYKRAAAMIQLAHPDHRDWLEEEARKLGILPPKYSIPAGKADGVIYRRD | failed
EAGEITFTEWCQGAVDMWRANDITRSDITRATRALKPKAGAVDLLAHLQQTDIRFGILSAGVANLAARFEPYEPAFVRGNWLQFEDRRVSAIDIGVGPNEKGELLRKIRSKQNPVSITYIGDSHTDTEAFIEADTAVLFDPDERVPETAIDAADTIIESADIAEVQNCIPTA | failed
EAHRVLFGFVPETKEELQVMPGNIVFVLKKGNDNWATVMFNGQKGLVPCNYLEPV | not failed
EDAWMGTHPKYLEMMELDIGDATQVYVAFLVYLDLMESKSWHEVNCVGLPELQLICLVGTEIEGEGLQTVVPTPITASLSHNRIREILKASRKLQGDPDLPMSFTLAIVESDSTIVYYKLTD | not failed
EDDKLKSVEALRQKGNELFVQKDYKEAIDAYRDALTRLDTLILREKPGEPEWVELDRKNIPLYANMSQCYLNIGDLHEAEETSSEVLKREETNEKALFRRAKARIAAWKLDEAEEDLKLLLRNHPAAASVVAREMKIVTERRAEKKADSRVTYSKMFQP | not failed
EDSLATVKVVLIPVGQEIVIPFKVDTILKYLKDHFSHLLGIPHSVLQIRYSGKILKNNETLVQHGVKPQEIVQVEIFSTNPDLYPVRR | failed
EDVEFVRLNVSDLLTDPELAQSIFSLLVSAHYQTSPNDWLALLSDPSLFCWAGIDKSSRNVLTCALVSLEGQLDNELIADIQVGKRRPRGHLVPVSLTQTLCINEPAQQSCIRIMRIAVEQHYQRMHLGSKFIEYIKAFYCDLGIDYLSTSFGSTPGLNEFWLSLDF | failed
EDVSWIKPGQVSWEWWNGATPYGQDVTFKAGCNLETYKYFIDFASKFGIPYIIMDEGWAKSTRDPYTPNPDVDLHELIRYGKEKNVGIVLWLTWLTVEKNFDLFKTFNEWGIKGVKIDFMDRSDQWMVNYYERVAQEAARHHLFVDFHGSFKPAGLEYKYPNVLSYEGVRGMEQMGGCKPENSIYLPFMRNAVGPMDYTPGAMISMQPNIYRSERPNSASIGTRAYQMALFVIFESGLQMLADNPTLYYRNEDCTRFITQVPVTWDET | failed

Sequence | protein production
EEHRGEEILAVFDTAFGQLLAADPAAFRVKFRKMAASAFAFYRGTAGLFYRDLTEDPDFGDQHGGAYLDERTSRVWIHGDLHAENFGTYMDSTGRLIFNVNDFDEAYVGPFTWDLKRFAASVALIGYAKAFSDEQITELVRVY | failed
EELEYKGMNTLQISNVDDLISFYQYADDRIPLISGHRGGRGKGYPENSMETFENTLSYTPATFEIDPRLTKDSVIVLFHDDTLERTSNGTGKVSDYTWEELQNFRLKDPEGNITNYRIPTLEEAIRWARGKTILILDKKDVPMERTAQLITDMQAEPYVMITVHDGASARFFYEKNPNFMFEAFVKTKEAVQDYEDNGIPWSHIMAYVGPKITPEVREVIDMLHERGVMCMISTAPSDDKLSTPESRAEAYRMIIRQGVDIIESDRPIEVAEAISSLIPVSSSKGKFFSTL | not failed
EENPRGRFAITLPHSLESNVVMPAIEQLCIEYPGIEPEIIVSDSSLDLVENNLDVAIHAGDLPDSSYRALPIGTITEIFCATPLYLNKNFTPQKLSDLAQLKWI | failed
EHFNDMIEKRVKSEIRNQVDLKKPMVRISVAISGGKDSSVTLYLLHKILSKRRNVELTAFTVDEGISGYRPAGLESAIKLTKMLGVDHSIIRFQDSFGMTLDSIVGADASRIPCSYCGPLRRKLINEMAERQNADYVALGLNLDDYSQSILMNVAKGDYDRLLRMSPQKEAKDGLVRRIAPLRSVLEKEVVLYAVINGIPFDSSWC | failed
EHGLLVHKAVDKWTTEEVVLWLEQLGPWASLYRDRFLSERVNGRLLLTLTEEEFSRAPYTIENSSHRRVILTELERVR | not failed
EKMTRDEIAYMLTNSEETLDADEIEMLQGVFSLDELMAREVMVPRTDAFMVDIQDDSQAIIQSILKQNYSRIPVYDGDKDNVIGIIHTKSLLKAGFVDGFDNIVWKRILQDPLFVPETIFVDDLLKELRNTQRQMAILLDEYGGMAGLVTLEDLLEEIVGEID | not failed
ELPSVEELTIILPEDIELKPLGMVSSIIEQLVIIESMTNLPPVNEETVIFKSDRQAAGKIFEIFGPVAHPFYVLRFNSSDHIESKGIKIKETMYFA | not failed
EMRKFLVVLDDSRECLNAMRFAAMRAAHTGGGVAILSIIPPDEFNHWIGVGEVMREEARERIHAHFEVFAKWMRDKQGVEPELVIREGEAVPEIIAHVQEDPEIGVLVLGAGTDKKGPGPLVSQLSRSSGSLPIPITIVPGDLSKE | failed
ENGRYEYIVIGSEAAGVGLVRELTAAGKKVLAVDKSKEKIELLEDEGFDAVIADPTDESFYRSLDLEGVSAVLITGSDDEFNLKILKALRSVSDVYAIVRVSSPKKKEEFEEAGANLVVLVADAVKQAFMDKIKKMETL | not failed
EPLTIREYRPEDLEALLPLYEQLGYPTRTDELRDRLAGLLSHEDYHLLVAECDGQLVAFIGYARMYFFEHDGSYYRILALAVS | failed
EPPDGVRIVPVTDRAGVDLVADVHEKAFGTDSTRMRHQLLAQVTDDPDAVVAVVALAGDEPVSAARMELVPGTRFAGLWGGGTVEGERGRGIYRALVAHRAKVAADRGYRYVQVDATSQSRPVLARLGFEPLTTTTPYVS | failed
EQTTAADLPLTLAIAREVGNLLLTDSLLAETNRHLNQLNALLESMDDGVISWDEQGNLQFINAQAARVLRLDATASQGRAITELLTLPAVLQQAIKLAHPLKHVEATFESQHQFIDAVITLKPIIETQGTSFILLLHP | failed
ERFQFAGSGGHQLAAALDLPDAQPLAYALFAHCFTCSKDNLAARRISAAMAARGIAVLRFDFTGLGASEGEFENATFSSNVADLVLAADHLRATHRAPTLLIGHSLGGAAVLAAAAQIPEAKAIATIAAPSDPSHVTGLFADDIETIRTEGRVNVSLAGRPFTIKREFLDDIAEHNLMAEIGKLHKALLILHAPTDDTVGIDNATKIFLAAKHPKSFVSLDHADHLLSDRRDANYAAGVIAAWAQRYIDAEPPAPTAGAPEVPR | failed
ERRAPRKGNTLYVYGEDMTPTLLRGAFSPFGNIIDLSMDPPRNCAFVTYEKMESADQAVAELNGTQVESVQLKVNIARKQPMLD | not failed
ERYMQDFDLIFKELERWGPGSESDTLKALQKVPNKSMTLLEIGCGQGIATELFARHTDAMITAVDNEEFALKHLMEKMQQNGLEDKITTVCADMAKMPFETKSFDLIWSEGSAYIMGVQNALKAWKPLLSEDGVLVVSDLVWSTDKPSEGALSFWKKEYPDMVSVSERIKHAQQAGYEVIEHFSLSDAAWEAYYHPLIERLDTLKDKLIDSPVLIDFENEITAFKQRANEFDYEIFILRSR | failed
ESLKAGSSWQCDTCLLQNKVTDNKCIACQAAKLSPRDTAKQTGIETPNKSGKTTLSASGTGFGDKFKPVIGTWDCDTCLVQNKPEAIKCVACETPKPGTCVKRALTLTVV | failed
ESLQQVVMAYFGVQFKSEQKAIALKAMQHIVQSFSLDNGPQNHDITHHTDNQGYENYIVVGYWRDPGAYCRWFRSTEVSHWWDSDERLNDGIGYFREIVIPRADQFETLYAFKEDLPGVGAVMDDISDDIQEHGYWGSARERF | not failed

— a protein production outcome set (Wang et al. 2014)
